Source: article PMC9720396, “Autoreactivity and broad neutralization of antibodies against HIV-1 are governed by distinct mutations: Implications for vaccine design strategies” (Frontiers in Immunology, 2022)

Assays:
[1] = target: T1, UBE3A on the ProtoArray human protein microarray, Q05086; experiment: ProtoArray protein array; conditions: chain shown with the change; red circle = UBE3A; x coordinate of the circle; parent: est. 45; read off a plot
T1 chain: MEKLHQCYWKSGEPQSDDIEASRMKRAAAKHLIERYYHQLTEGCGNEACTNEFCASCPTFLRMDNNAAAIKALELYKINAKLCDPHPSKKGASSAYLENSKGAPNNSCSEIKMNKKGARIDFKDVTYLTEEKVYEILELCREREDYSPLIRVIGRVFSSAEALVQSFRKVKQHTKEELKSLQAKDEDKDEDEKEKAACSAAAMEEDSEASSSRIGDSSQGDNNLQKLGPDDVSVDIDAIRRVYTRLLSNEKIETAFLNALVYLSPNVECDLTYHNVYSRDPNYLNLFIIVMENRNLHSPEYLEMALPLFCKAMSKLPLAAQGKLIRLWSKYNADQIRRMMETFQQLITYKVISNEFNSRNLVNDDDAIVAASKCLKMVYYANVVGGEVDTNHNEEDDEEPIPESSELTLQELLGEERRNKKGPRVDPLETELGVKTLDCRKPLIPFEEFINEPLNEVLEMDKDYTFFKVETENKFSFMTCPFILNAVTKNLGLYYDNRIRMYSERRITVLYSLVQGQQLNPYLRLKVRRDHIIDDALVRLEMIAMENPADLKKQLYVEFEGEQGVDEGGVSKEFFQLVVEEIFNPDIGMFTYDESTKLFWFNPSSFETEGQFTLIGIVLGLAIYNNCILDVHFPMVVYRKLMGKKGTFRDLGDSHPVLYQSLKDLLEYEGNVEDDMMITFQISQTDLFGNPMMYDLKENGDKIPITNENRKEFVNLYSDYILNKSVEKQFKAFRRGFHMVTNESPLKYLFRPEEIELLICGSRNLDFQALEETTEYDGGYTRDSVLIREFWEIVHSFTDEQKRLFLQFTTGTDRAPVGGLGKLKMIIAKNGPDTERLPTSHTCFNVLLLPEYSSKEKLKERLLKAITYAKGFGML

[2] = target: T2, host protein UBE3A (Abcam), coupled to Luminex beads (Homo sapiens, UniProt Q05086); experiment: Luminex bead-based binding assay; UBE3A (Abcam) covalently linked to carboxylated beads; Abs serially diluted 1:3 from 2 µg/ml in PBS with 0.05% NaN3, 0.05% Tween 20, 1% BSA and 1% milk; 2 hours at room temperature; detected with PE goat anti-human IgG; conditions: both partners purified
T2 construct: UBE3A, host protein; bought from Abcam (printed there as UBE34); also called UBE34; source: bought: Abcam

[3] = target: T3, host protein UBE3A (Abcam), coupled to Luminex beads, Q05086; experiment: Luminex bead assay; conditions: chain shown with the change; left panel; highest antibody concentration plotted, est. 2000 ng/ml; parent: est. 12; read off a plot
T3 chain: T1 chain

B1: IA2_N60S (antibody, V domains shown)
V domain 1: QVQLQESGPGVVKSSETLSLTCTVSGGSMGGTYWSWLRLSPGKGLEWIGYIFHTGHTNYSPSLEGRVSISVDTSEDQFSLRLRSVTAADTAVYFCASLPRGQLVNAYFRNWGRGTLVSVTA
V domain 2: SYELTQPPSVSVSPGQTATITCSGDKVASKNVCWYQVKPGQSPEVVMYENYKRPSGIPDRFSGSKSGSTATLTIRGTQATDEADYYCQVWDSFSTFVFGSGTQVTV
notes: as the heavy chain of m8 (IA2); as the light chain of m8 (IA2); recombinant IgG; also called the N60S mutant; IA2 N60S mutant; source: Expi293, transiently transfected, purified (Protein A agarose)
[1]
  response: 45 MFI
[2]
  binding result: no binding (tested: 2 µg/ml)
[3]
  response: 8.5 gMFI
